Source: PMC5123050

Target: 32P-labelled ORF145/RIP (protein kinase A recognition sequence and C-terminal His-tag) (Acidianus two-tailed virus (ATV))
Assay: native gel or EMSA; 32P-ORF145/RIP (1 nM) with 1–100 nM Sso RNAP in 10 mM MOPS pH 6.5, 10 mM MgCl2, 260 mM NaCl, 5 mM DTT, 10% glycerol, BSA, 2 mM ATP, 65 °C 5 min; 6% native PAGE; tight binding equation; complexes also resistant to 2 M NaCl

Kd: 12.6 nM
Substance: Sulfolobus solfataricus (Sso) RNA polymerase, 13 subunits (from UniProt Q980R2 1-880) (complex)
